This experiment addresses T1, recombinant hPD1 (Sino Biologicals, reference 10377-H08H) (human, UniProt Q15116 25-167).
T1 construct: also called Human recombinant PD-1; rPD1
In words: ELISA: human recombinant PD-1 immobilised, detection with anti-human Fc-peroxidase, TMB. The method, then:
PD-1 binding ELISA assay. Human recombinant PD-1 (rPD1) protein was immobilized, and antibodies were added at different concentrations. Revelation was performed with an anti-human Fc antibody coupled to peroxidase. Colorimetry was determined at 450 nm using TMB substrate. The bifunctional molecules comprising an IL7 W142H N297A variant with 1 anti PD-1 arm ( ) was tested as control.

T1 sequence (Q15116 25-167 limits assumed): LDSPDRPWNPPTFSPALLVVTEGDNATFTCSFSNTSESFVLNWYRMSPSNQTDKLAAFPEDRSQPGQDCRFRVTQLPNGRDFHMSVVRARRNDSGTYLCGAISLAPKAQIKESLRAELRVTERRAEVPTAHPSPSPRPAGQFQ

B1: anti PD-1*1 IL7 W142H*1 N297A DHS (other)
chain: DKTHTCPPCPAPELLGGPSVFLFPPKPKDTLMISRTPEVTCVVVDVSHEDPEVKFNWYVDGVEVHNAKTKPREEQYASTYRVVSVLTVDHHDWLNGKEYKCKVSNKALPAPIEKTISKAKGQPREPQVYTLPPCRDELTKNQVSLWCLVKGFYPSDIAVEWESNGQPENNYKTTPPVLDSDGSFFLYSKLTVDKSRWQQGNVFSCSVMHEALHSHYTQKSLSLSPGK
heavy: QIQLVQSGSELKKPGASVKVSCKASGYTFTHYAMNWVRQAPGQGLEWMGWINTNTGEPTYAQGFTGRFVFSLDTSVSTAYLQISSLKAEDTAVYYCAREREPGMDNWGQGTLVTVSSASTKGPSVFPLAPSSKSTSGGTAALGCLVKDYFPEPVTVSWNSGALTSGVHTFPAVLQSSGLYSLSSVVTVPSSSLGTQTYICNVNHKPSNTKVDKKVEPKSCDKTHTCPPCPAPELLGGPSVFLFPPKPKDTLMISRTPEVTCVVVDVSHEDPEVKFNWYVDGVEVHNAKTKPREEQYASTYRVVSVLTVDHHDWLNGKEYKCKVSNKALPAPIEKTISKAKGQPREPQVCTLPPSRDELTKNQVSLSCAVKGFYPSDIAVEWESNGQPENNYKTTPPVLDSDGSFFLVSKLTVDKSRWQQGNVFSCSVMHEALHSHYTQKSLSLSPGKGGGGSGGGGSGGGGSDCDIEGKDGKQYESVLMVSIDQLLDSMKEIGSNCLNNEFNFFKRHICDANKEGMFLFRAARKLRQFLKMNSTGDFDLHLLKVSEGTTILLNCTGQVKGRKPAALGEAQPTKSLEENKSLKEQKKLNDLCFLKRLLQEIKTCHNKILMGTKEH
light: DVVMTQSPLSLPVTLGQPASISCRSSQSLVHANTNTYLEWYQQRPGQSPRLLIYKVSNRFSGVPDRFSGSGSGTDFTLKISRVEAEDVGVYYCFQGTHVPNTFGQGTKLEIKRTVAAPSVFIFPPSDEQLKSGTASVVCLLNNFYPREAKVQWKVDNALQSGNSQESVTEQDSKDSTYSLSSTLTLSKADYEKHKVYACEVTHQGLSSPVTKSFNRGEC
notes: also called IL7 W142H N297A DHS
For B1, the half-maximal effective concentration (EC50 (read off the curve)) is approximately 0.05 µg/mL.

B2: anti PD-1*1 IL7 W142H*1 N297A LS (other)
chain: DKTHTCPPCPAPELLGGPSVFLFPPKPKDTLMISRTPEVTCVVVDVSHEDPEVKFNWYVDGVEVHNAKTKPREEQYASTYRVVSVLTVLHQDWLNGKEYKCKVSNKALPAPIEKTISKAKGQPREPQVYTLPPCRDELTKNQVSLWCLVKGFYPSDIAVEWESNGQPENNYKTTPPVLDSDGSFFLYSKLTVDKSRWQQGNVFSCSVLHEALHSHYTQKSLSLSPGK
heavy: QIQLVQSGSELKKPGASVKVSCKASGYTFTHYAMNWVRQAPGQGLEWMGWINTNTGEPTYAQGFTGRFVFSLDTSVSTAYLQISSLKAEDTAVYYCAREREPGMDNWGQGTLVTVSSASTKGPSVFPLAPSSKSTSGGTAALGCLVKDYFPEPVTVSWNSGALTSGVHTFPAVLQSSGLYSLSSVVTVPSSSLGTQTYICNVNHKPSNTKVDKKVEPKSCDKTHTCPPCPAPELLGGPSVFLFPPKPKDTLMISRTPEVTCVVVDVSHEDPEVKFNWYVDGVEVHNAKTKPREEQYASTYRVVSVLTVLHQDWLNGKEYKCKVSNKALPAPIEKTISKAKGQPREPQVCTLPPSRDELTKNQVSLSCAVKGFYPSDIAVEWESNGQPENNYKTTPPVLDSDGSFFLVSKLTVDKSRWQQGNVFSCSVLHEALHSHYTQKSLSLSPGKGGGGSGGGGSGGGGSDCDIEGKDGKQYESVLMVSIDQLLDSMKEIGSNCLNNEFNFFKRHICDANKEGMFLFRAARKLRQFLKMNSTGDFDLHLLKVSEGTTILLNCTGQVKGRKPAALGEAQPTKSLEENKSLKEQKKLNDLCFLKRLLQEIKTCHNKILMGTKEH
light: DVVMTQSPLSLPVTLGQPASISCRSSQSLVHANTNTYLEWYQQRPGQSPRLLIYKVSNRFSGVPDRFSGSGSGTDFTLKISRVEAEDVGVYYCFQGTHVPNTFGQGTKLEIKRTVAAPSVFIFPPSDEQLKSGTASVVCLLNNFYPREAKVQWKVDNALQSGNSQESVTEQDSKDSTYSLSSTLTLSKADYEKHKVYACEVTHQGLSSPVTKSFNRGEC
notes: Fc mutant of anti PD-1*1 IL7W142H*1; also called IL7 W142H N297A LS
With B2, the “EC50 (read off the curve)” value was approximately 0.03 µg/mL.

As a reminder, the EC50 (read off the curve) is the concentration that produces a half-maximal response.

For the origin of these results see patent US20240067727A1 (OSE IMMUNOTHERAPEUTICS, published 2024).
